# Experimental data reported in patent US20230104769A1 (MABWELL SHANGHAI BIOSCIENCE, published 2023).
# Numbering of substitutions follows the chain as printed. Numbers in names are those of the source.
# B1: h317 variant antibody, heavy chain D33S (antibody, V domains shown)
# VH: EVQLVESGGGLVKPGGSLRLSCAASGFTFSSYSMSWVRQAPGKGLEWVATISGGGSYTYYPDSVKGRFTISRDNAKNSLYLQMNSLRAEDTAVYYCASPDSSGVAYWGQGTLVTVSS
# VL: DIVMTQSPLSLPVTPGEPASITCKASQDVETVVAWYLQKPGQSPRLLIYWASTRHTGVPDRFSGSGSGTDFTLKISRVEAEDVGVYYCQQYSRYPWTFGQGTKL
# notes: Variant of h317
# B2: h317 variant antibody, heavy chain D100Y (antibody, V domains shown)
# VH: B1 VH with S33D, D100Y
# VL: B1 VL
# notes: Variant of h317
# B3: h317 variant antibody, light chain Y91F (antibody, V domains shown)
# VH: B1 VH with S33D
# VL: B1 VL with Y91F
# notes: Variant of h317
# B4: h317 variant antibody, heavy chain G53Y (antibody, V domains shown)
# VH: B1 VH with S33D, G53Y
# VL: B1 VL
# notes: Variant of h317
# B5: h317 variant antibody, light chain S92N (antibody, V domains shown)
# VH: B1 VH with S33D
# VL: B1 VL with S92N
# notes: Variant of h317
# B6: h317 variant antibody, heavy chain G54S (antibody, V domains shown)
# VH: B1 VH with S33D, G54S
# VL: B1 VL
# notes: Variant of h317
# B7: h317 variant antibody, light chain K24R, T56S and S92N (antibody, V domains shown)
# VH: B1 VH with S33D
# VL: B1 VL with K24R, T56S, S92N
# notes: Variant of h317; also called 24R(CDR1) 56S(CDR2) 92N(CDR3)
# B8: h317 variant antibody, heavy chain S56G (antibody, V domains shown)
# VH: B1 VH with S33D, S56G
# VL: B1 VL
# notes: Variant of h317
# B9: h317 variant antibody, heavy chain Y106T (antibody, V domains shown)
# VH: B1 VH with S33D, Y106T
# VL: B1 VL
# notes: Variant of h317; also called YI06T
# B10: h317 variant antibody, heavy chain Y57T (antibody, V domains shown)
# VH: B1 VH with S33D, Y57T
# VL: B1 VL
# notes: Variant of h317
# B11: h317 variant antibody, light chain R93S (antibody, V domains shown)
# VH: B1 VH with S33D
# VL: B1 VL with R93S
# notes: Variant of h317
# B12: h317 variant antibody, light chain W96G (antibody, V domains shown)
# VH: B1 VH with S33D
# VL: B1 VL with W96G
# notes: Variant of h317
# B13: h317 variant antibody, heavy chain S52K (antibody, V domains shown)
# VH: B1 VH with S33D, S52K
# VL: B1 VL
# notes: Variant of h317
# B14: h317 variant antibody, heavy chain S101A (antibody, V domains shown)
# VH: B1 VH with S33D, S101A
# VL: B1 VL
# notes: Variant of h317
# B15: h317 variant antibody, light chain Y91A (antibody, V domains shown)
# VH: B1 VH with S33D
# VL: B1 VL with Y91A
# notes: Variant of h317
# B16: h317 variant antibody, light chain K24R, T56S and S92N with heavy chain D33S and G54S (antibody, V domains shown)
# VH: B1 VH with G54S
# VL: B1 VL with K24R, T56S, S92N
# notes: Variant of h317; also called L- 24R(CDR1) 56S(CDR2) 92N(CDR3); H- 33S(CDR1) 54S(CDR2)
# B17: h317 variant antibody, light chain W96Y (antibody, V domains shown)
# VH: B1 VH with S33D
# VL: B1 VL with W96Y
# notes: Variant of h317
# B18: h317 variant antibody, heavy chain Y32A (antibody, V domains shown)
# VH: B1 VH with Y32A, S33D
# VL: B1 VL
# notes: Variant of h317
# B19: h317 variant antibody, heavy chain Y59T (antibody, V domains shown)
# VH: B1 VH with S33D, Y59T
# VL: B1 VL
# notes: Variant of h317
# B20: h317 variant antibody, heavy chain G54D (antibody, V domains shown)
# VH: B1 VH with S33D, G54D
# VL: B1 VL
# notes: Variant of h317
# B21: h317 variant antibody, heavy chain Y59A (antibody, V domains shown)
# VH: B1 VH with S33D, Y59A
# VL: B1 VL
# notes: Variant of h317
# B22: h317 variant antibody, heavy chain D33S and Y59A (antibody, V domains shown)
# VH: B1 VH with Y59A
# VL: B1 VL
# notes: Variant of h317; also called 33S(CDRH 59A(CDR2))
# B23: h317 variant antibody, heavy chain D100E (antibody, V domains shown)
# VH: B1 VH with S33D, D100E
# VL: B1 VL
# notes: Variant of h317
# B24: h317 variant antibody, light chain K24R, T56S and S92N with heavy chain G54S and Y59A (antibody, V domains shown)
# VH: B1 VH with S33D, G54S, Y59A
# VL: B1 VL with K24R, T56S, S92N
# notes: Variant of h317; also called L- 24R(CDR1) 56S(CDR2) 92N(CDR3); H- 54S(CDR2) 59A(CDR2)
# B25: h317 variant antibody, light chain R93N (antibody, V domains shown)
# VH: B1 VH with S33D
# VL: B1 VL with R93N
# notes: Variant of h317
# B26: h317 variant antibody, heavy chain S31D (antibody, V domains shown)
# VH: B1 VH with S31D, S33D
# VL: B1 VL
# notes: Variant of h317
# B27: h317 variant antibody, light chain K24R and Y94F (antibody, V domains shown)
# VH: B1 VH with S33D
# VL: B1 VL with K24R, Y94F
# notes: Variant of h317; also called 24R(CDR1) 94F(CDR3)
# B28: h317 variant antibody, heavy chain Y32N (antibody, V domains shown)
# VH: B1 VH with Y32N, S33D
# VL: B1 VL
# notes: Variant of h317
# B29: h317 variant antibody, heavy chain G53S (antibody, V domains shown)
# VH: B1 VH with S33D, G53S
# VL: B1 VL
# notes: Variant of h317
# B30: h317 variant antibody, light chain E30S (antibody, V domains shown)
# VH: B1 VH with S33D
# VL: B1 VL with E30S
# notes: Variant of h317
# B31: h317 variant antibody, light chain W50G (antibody, V domains shown)
# VH: B1 VH with S33D
# VL: B1 VL with W50G
# notes: Variant of h317
# B32: h317 variant antibody, light chain H55A (antibody, V domains shown)
# VH: B1 VH with S33D
# VL: B1 VL with H55A
# notes: Variant of h317
# B33: h317 variant antibody, light chain V32A (antibody, V domains shown)
# VH: B1 VH with S33D
# VL: B1 VL with V32A
# notes: Variant of h317
# B34: h317 variant antibody, light chain T56S (antibody, V domains shown)
# VH: B1 VH with S33D
# VL: B1 VL with T56S
# notes: Variant of h317
# B35: h317 variant antibody, light chain S92D (antibody, V domains shown)
# VH: B1 VH with S33D
# VL: B1 VL with S92D
# notes: Variant of h317
# B36: h317 variant antibody, light chain T56S and S92N (antibody, V domains shown)
# VH: B1 VH with S33D
# VL: B1 VL with T56S, S92N
# notes: Variant of h317; also called 56S(CDR2) 92N(CDR3)
# B37: h317 variant antibody, heavy chain S52W (antibody, V domains shown)
# VH: B1 VH with S33D, S52W
# VL: B1 VL
# notes: Variant of h317
# B38: h317 variant antibody, heavy chain D33Y (antibody, V domains shown)
# VH: B1 VH with S33Y
# VL: B1 VL
# notes: Variant of h317
# B39: h317 variant antibody, light chain K24R and S92N (antibody, V domains shown)
# VH: B1 VH with S33D
# VL: B1 VL with K24R, S92N
# notes: Variant of h317; also called 24R(CDR1) 92N(CDR3)
# B40: h317 variant antibody, light chain K24R (antibody, V domains shown)
# VH: B1 VH with S33D
# VL: B1 VL with K24R
# notes: Variant of h317
# B41: h317 variant antibody, heavy chain G55S (antibody, V domains shown)
# VH: B1 VH with S33D, G55S
# VL: B1 VL
# notes: Variant of h317
# B42: h317 variant antibody, light chain K24R and T56S (antibody, V domains shown)
# VH: B1 VH with S33D
# VL: B1 VL with K24R, T56S
# notes: Variant of h317; also called 24R(CDR1) 56(2)
# B43: h317 variant antibody, light chain H55Q (antibody, V domains shown)
# VH: B1 VH with S33D
# VL: B1 VL with H55Q
# notes: Variant of h317
# B44: h317 variant antibody, heavy chain D33S and G54S (antibody, V domains shown)
# VH: B1 VH with G54S
# VL: B1 VL
# notes: Variant of h317; also called 33S(CDR1) 54S(CDR2)
# B45: h317 variant antibody, heavy chain G54S and Y59A (antibody, V domains shown)
# VH: B1 VH with S33D, G54S, Y59A
# VL: B1 VL
# notes: Variant of h317; also called 54S(CDR2) 59A(CDR2)
# B46: h317 variant antibody, light chain W50A (antibody, V domains shown)
# VH: B1 VH with S33D
# VL: B1 VL with W50A
# notes: Variant of h317
# B47: h317 variant antibody, light chain V32Y (antibody, V domains shown)
# VH: B1 VH with S33D
# VL: B1 VL with V32Y
# notes: Variant of h317
# Biological target: T1, recombinant human PD-1 protein (NCBI accession No.: NP_005009.2, 21aa-167aa) (human, UniProt Q15116 21-167)
# T1 construct: range 21-167; also called recombinant human PD-1 extracellular domain protein; PD-1-ECD
# T1 sequence (Q15116 21-167 limits assumed, form in doubt): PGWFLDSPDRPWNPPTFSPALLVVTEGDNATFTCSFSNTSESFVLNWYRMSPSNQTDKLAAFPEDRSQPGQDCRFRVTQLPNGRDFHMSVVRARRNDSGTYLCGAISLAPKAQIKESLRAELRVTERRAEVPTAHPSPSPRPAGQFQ
# Assay: BLI Octet QKe, antibody on the sensor, single 100 nM PD-1
# Description: Determination of the binding kinetics: the affinity of the antibody was determined with Octet QKe system from Fortebio using an assay of capturing biotin-labeled antibody with streptavidin. […] Both the binding and dissociating were conducted for 300 s.
# The comparison of affinity between the variant antibodies and the parent antibody was performed using Octet QKe system supplied by Fortebio.
row,Kd [nM],Binder
1,2.89,B1
2,8.23,B2
3,47.6,B3
4,10.3,B4
5,3.49,B5
6,1.32,B6
7,2.91,B7
8,148,B8
9,294,B9
10,61.2,B10
11,7.94,B11
12,15.3,B12
13,27.2,B13
14,16.3,B14
15,51.2,B15
16,3.38,B16
17,412,B17
18,6.83,B18
19,18.9,B19
20,29.3,B20
21,3.29,B21
22,3.96,B22
23,74.4,B23
24,2.88,B24

row,Kd [nM],Binder
1,36.4,B25
2,5.12,B26
3,5.32,B27
4,18.1,B28
5,5.53,B29
6,14.2,B30
7,61.4,B31
8,172,B32
9,6.21,B33
10,3.02,B34
11,7.52,B35
12,3.98,B36
13,39.4,B37
14,236,B38
15,4.17,B39
16,1.02,B40
17,9.09,B41
18,3.23,B42
19,14.2,B43
20,3.12,B44
21,2.68,B45
22,12.3,B46
23,9.81,B47
